# Measured values as given in the RNAGym collection of RNA variant scans (doi:10.1073/pnas.2313332121).
# B1: TPR t1 (parent)
# chain: GACCAAUCUGCCCUCAGAGCUCGAGAACAUCUUCGGAUGCAGAGGAGGCAGGCUUCGGUGGCGCGAUAGCGCCAACGUCCUCAACCUCCAAUGCAUCCCACCACAUGAUGAUGCCUGAAGAGCCUUGGUUUUUUG
# Variants of: B1
# Assay: polymerase ribozyme fitness, log enrichment relative to wild type (log ratio); higher = more active; in vitro selection for triplet polymerase activity
# Summary of the method: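 Mutant libraries of each subunit of a heterodimeric triplet polymerase ribozyme were built by PCR and transcribed. Each library went through one round of in vitro selection in triplicate: annealing with biotinylated primer, partner subunit and triplets, frozen incubation at −7 °C, gel excision of extended constructs, streptavidin-bead capture and RT-PCR. Input and output libraries were Illumina-sequenced; only genotypes with ≥10 input reads and ≥1 read per output were kept. Fitness is log2(genotype enrichment/wild-type enrichment), using inverse-variance-weighted replicate averages.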
row,Variant,polymerase ribozyme fitness (log ratio)
1,C88G C104A U112G,-4.26
2,C88G G117C U133A,-3.79
3,C88G G120A,-1.21
4,C88G G120A U129A,-1.48
5,C88G G120C,-0.00486
6,C88G U130C,-0.362
7,C88G U130G,-0.5
8,C88U A121C,1.77
9,C88U C98A U106G,-5.05
10,C88U C123A,1.43
11,C88U C123U,0.953
12,C88U C124A,1.47
13,C88U G93A,-0.936
14,C88U G93A A108G C115U A118U G135C,-4.45
15,C88U G110C,-3.92
16,C88U G110U U125G,-2.46
17,C88U G117A,-1.32
18,C88U G120U U132C,0.106
19,C88U U112G,0.74
20,C88U U125G,-1.39
21,C88U U129C,-0.178

row,Variant,polymerase ribozyme fitness (log ratio)
1,C89A A91U,-1.18
2,C89A A105C,-4.64
3,C89A A111C,-2.88
4,C89A A111G,-1.35
5,C89A A111U G122A,-4.54
6,C89A A121U U125G,-0.211
7,C89A C94A C115U U130A,-3.36
8,C89A C123U,-0.0853
9,C89A C123U C124G,1.14
10,C89A C124U,0.618
11,C89A G93A U106A,-3.07
12,C89A G120A G128C U132C,-3.37
13,C89A U116G C123G,-3.17
14,C89A U129G,-2.64
15,C89A U130G,-1.51
16,C89G A100C,-3.25
17,C89G A111C,-2.08
18,C89G A111G G113C,-3.54
19,C89G C104A,-3.34
20,C89G G93U G120U,-3.31
21,C89G G110U,-2.85

row,Variant,polymerase ribozyme fitness (log ratio)
1,C89G G113A,-3.42
2,C89G G113U,-3.93
3,C89G G120C,-0.58
4,C89U A100U,-1.41
5,C89U A108G A119G U131G U132C,-1.34
6,C89U C99G A100C C123G,-7.05
7,C89U C115A,0.206
8,C89U C123A,0.125
9,C89U G117C,-4.26
10,C89U G120C,0.737
11,C89U G122A,-0.697
12,C89U G122U,-0.616
13,C89U U109C,-3.31
14,A90C A91C G110A,-4.36
15,A90C A100U A111G,-1.79
16,A90C C94U,-1.34
17,A90C C97U U112C C114A,-3.18
18,A90C C104U A105C,-5.64
19,A90C C115A,-0.409
20,A90C C123U,0.206
21,A90C U92C C102A G120C U132A,-4.27

row,Variant,polymerase ribozyme fitness (log ratio)
1,A90G A95C,-0.759
2,A90G C101A C123A,-0.711
3,A90G C101G C115G,-2.74
4,A90G C104U U112C A121U U130C,2.04
5,A90G U112A,1.08
6,A90G U125G,-0.567
7,A90U A105G,-3.78
8,A90U C114G G117A,-4.57
9,A90U G93A U112C,-0.194
10,A90U G110U,-3.55
11,A90U G117U,-3.37
12,A90U U112G,-3.12
13,A90U U116C,-1.26
14,A90U U125G,-1.11
15,A91C,-1.4
16,A91C A118G,-2.33
17,A91C C104U,-1.08
18,A91C C123U,-0.37
19,A91C U96A,-2.09
20,A91G,-0.586
